Data as given in PMC13185593.

Tested on: HuR
Assay: SPR
Conditions: SPR: 25 mM Tris pH 7.5, 100 mM KCl, 7 mM b-mercaptoethanol, 10% glycerol, 25 C, UV crosslinking: 5 mM HEPES pH 7.6, 25 mM KCl, 2 mM MgCl2, 3.8% glycerol

Substance: SARS-CoV-2 5'-UTR C241U, biotin (SPR)
- Kd: 0.339 µM

Substance: SARS-CoV-2 5'-UTR G210U+C241U, biotin (SPR)
- Kd: 0.0729 µM
